Molecular target: the molecule itself
Experiment: negative-stain transmission electron microscopy

B1: LPS-free OmpF refolded from inclusion bodies, reconstituted into Amphipol A8-35 (natural protein)
chain: MEIYNKDGNKVDLYGKAVGLHYFSKGNGENSYGGNGDMTYARLGFKGETQINSDLTGYGQWEYNFQGNNSEGADAQTGNKTRLAFAGLKYADVGSFDYGRNYGVVYDALGYTDMLPEFGGDTAYSDDFFVGRVGGVATYRNSNFFGLVDGLNFAVQYLGKNERDTARRSNGDGVGGSISYEYEGFGIVGAYGAADRTNLQEAQPLGNGKKAEQWATGLKYDANNIYLAANYGETRNATPITNKFTNTSGFANKTQDVLLVAQYQFDFGLRPSIAYTKSKAKDVEGIGDVDLVNYFEVGATYYFNKNMSTYVDYIINQIDSDNKLGVGSDDTVAVGIVYQF
  binding result: binds

— paper PMC4196048 (The Journal of Membrane Biology, 2014)
